T1: PDZRN3_1, Q9UPQ7
T1 sequence (Q9UPQ7 244-349, limits assumed, looked up): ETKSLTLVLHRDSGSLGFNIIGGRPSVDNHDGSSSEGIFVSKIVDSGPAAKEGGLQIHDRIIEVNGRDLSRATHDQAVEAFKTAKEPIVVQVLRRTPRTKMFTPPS

T2: LNX2_2, Q8N448
T2 sequence (Q8N448 334-432, limits assumed, looked up): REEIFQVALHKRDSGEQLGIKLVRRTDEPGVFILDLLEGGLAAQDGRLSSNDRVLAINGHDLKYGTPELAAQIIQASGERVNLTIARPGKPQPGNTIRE

T3: GRIP1_4, Q9Y3R0
T3 sequence (Q9Y3R0 467-571, limits assumed, looked up): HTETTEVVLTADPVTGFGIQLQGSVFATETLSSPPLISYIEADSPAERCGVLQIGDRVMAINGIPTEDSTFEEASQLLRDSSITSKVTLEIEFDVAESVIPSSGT

T4: APBA2_2, Q99767
T4 sequence (Q99767 654-744, limits assumed, looked up): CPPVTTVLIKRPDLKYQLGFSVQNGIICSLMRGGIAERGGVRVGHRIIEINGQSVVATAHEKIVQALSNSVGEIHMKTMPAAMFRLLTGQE

T5: MPP6, Q9NZW5
T5 sequence (Q9NZW5 125-219, limits assumed, looked up): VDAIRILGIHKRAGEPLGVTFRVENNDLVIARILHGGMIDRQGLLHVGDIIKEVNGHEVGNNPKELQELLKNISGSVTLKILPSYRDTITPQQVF

T6: SNTB1, Q13884
T6 sequence (Q13884 107-205, limits assumed, looked up): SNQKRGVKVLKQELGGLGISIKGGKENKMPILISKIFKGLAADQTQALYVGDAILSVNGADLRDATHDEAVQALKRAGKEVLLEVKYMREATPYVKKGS

T7: LNX2_3, Q8N448
T7 sequence (Q8N448 463-564, limits assumed, looked up): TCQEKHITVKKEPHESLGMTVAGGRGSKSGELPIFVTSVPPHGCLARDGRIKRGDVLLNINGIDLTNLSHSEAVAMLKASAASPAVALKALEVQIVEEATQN

T8: LIN7C, Q9NUP9
T8 sequence (Q9NUP9 88-185, limits assumed, looked up): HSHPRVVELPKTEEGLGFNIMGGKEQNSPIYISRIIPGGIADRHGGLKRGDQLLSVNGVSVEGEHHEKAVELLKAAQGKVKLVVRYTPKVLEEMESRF

T9: NHERF3_4, Q5T2W1
T9 sequence (Q5T2W1 373-468, limits assumed, looked up): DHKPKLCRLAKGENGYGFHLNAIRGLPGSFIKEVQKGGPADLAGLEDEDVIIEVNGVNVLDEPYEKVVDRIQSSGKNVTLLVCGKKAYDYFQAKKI

T10: SNTA1, Q13424
T10 sequence (Q13424 82-180, limits assumed, looked up): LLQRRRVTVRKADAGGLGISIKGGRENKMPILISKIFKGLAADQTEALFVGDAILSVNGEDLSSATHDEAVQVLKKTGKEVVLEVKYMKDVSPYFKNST

B1: VANGL1, Q8TAA9 (peptide)
chain: VLRLQSETSV
B2: SLC1A5, Q15758 (peptide)
chain: TVASEKESVM
B3: HPV16-E6, P03126 (peptide)
chain: SSRTRRETQL
B4: KIR3DL3, Q8N743 (peptide)
chain: PKTPPTDTSV

Key:
Test in all cases: holdup assay
Parameters in all cases: key: below the threshold = too weak to quantify, mostly under pKd 3.1 to 4
Details in all cases: plain residues with an end cap or a label only (N-terminal biotin on a linker: ttds)
PDZRN3_1, Q9UPQ7 = biological target: T1, PDZRN3_1, Q9UPQ7
GORASP1, Q9BQQ3 = biological target: GORASP1, Q9BQQ3
Sequence of GORASP1, Q9BQQ3 (Q9BQQ3 1-208): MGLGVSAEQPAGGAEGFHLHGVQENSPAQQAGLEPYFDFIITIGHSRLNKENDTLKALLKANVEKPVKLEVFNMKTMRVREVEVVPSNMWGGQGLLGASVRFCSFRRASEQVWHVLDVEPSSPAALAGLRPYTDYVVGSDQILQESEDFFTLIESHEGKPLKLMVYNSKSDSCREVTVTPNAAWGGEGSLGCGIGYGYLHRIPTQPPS

LNX2_2, Q8N448 = biological target: T2, LNX2_2, Q8N448
ARHGEF12, Q9NZN5-2 = biological target: ARHGEF12, Q9NZN5-2
Sequence of ARHGEF12, Q9NZN5-2 (Q9NZN5 other isoform, or with tags, fused parts or gaps): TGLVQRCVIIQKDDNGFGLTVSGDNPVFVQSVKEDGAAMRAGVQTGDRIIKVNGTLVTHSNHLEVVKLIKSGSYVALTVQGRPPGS

GRIP1_4, Q9Y3R0 = biological target: T3, GRIP1_4, Q9Y3R0
DLG1_3, Q12959 = biological target: DLG1_3, Q12959
Sequence of DLG1_3, Q12959 (Q12959 457-571): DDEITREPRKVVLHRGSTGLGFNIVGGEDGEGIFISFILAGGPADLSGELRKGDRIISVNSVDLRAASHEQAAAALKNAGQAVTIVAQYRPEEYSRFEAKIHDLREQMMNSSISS

GRIP2_7, Q9C0E4 = biological target: GRIP2_7, Q9C0E4
Sequence of GRIP2_7, Q9C0E4 (Q9C0E4 934-1023): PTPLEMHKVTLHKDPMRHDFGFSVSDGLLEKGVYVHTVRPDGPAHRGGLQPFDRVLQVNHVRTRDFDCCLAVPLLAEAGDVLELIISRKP

MAGI2_6, Q86UL8 = biological target: MAGI2_6, Q86UL8
Sequence of MAGI2_6, Q86UL8 (Q86UL8 1141-1229): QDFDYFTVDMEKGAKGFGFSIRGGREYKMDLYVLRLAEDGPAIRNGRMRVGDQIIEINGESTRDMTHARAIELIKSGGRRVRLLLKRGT

APBA2_2, Q99767 = biological target: T4, APBA2_2, Q99767
TJP2_1, Q9UDY2 = biological target: TJP2_1, Q9UDY2
Sequence of TJP2_1, Q9UDY2 (Q9UDY2 24-128): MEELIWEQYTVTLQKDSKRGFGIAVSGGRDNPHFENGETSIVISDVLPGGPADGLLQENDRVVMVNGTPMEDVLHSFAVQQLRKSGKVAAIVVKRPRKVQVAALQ

MPP6, Q9NZW5 = biological target: T5, MPP6, Q9NZW5
Inadl_5, Q8NI35 = biological target: Inadl_5, Q8NI35
Sequence of Inadl_5, Q8NI35 (Q8NI35 673-780): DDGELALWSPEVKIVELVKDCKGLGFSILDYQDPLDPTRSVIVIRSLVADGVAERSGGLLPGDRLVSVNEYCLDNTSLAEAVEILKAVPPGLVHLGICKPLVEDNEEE

SNTB1, Q13884 = biological target: T6, SNTB1, Q13884
GIPC2, Q8TF65 = biological target: GIPC2, Q8TF65
Sequence of GIPC2, Q8TF65 (Q8TF65 112-203): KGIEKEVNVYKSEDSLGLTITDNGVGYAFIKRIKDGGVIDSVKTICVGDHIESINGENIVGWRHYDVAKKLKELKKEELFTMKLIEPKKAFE

LNX1_1, Q8TBB1 = biological target: LNX1_1, Q8TBB1
Sequence of LNX1_1, Q8TBB1 (Q8TBB1 261-371): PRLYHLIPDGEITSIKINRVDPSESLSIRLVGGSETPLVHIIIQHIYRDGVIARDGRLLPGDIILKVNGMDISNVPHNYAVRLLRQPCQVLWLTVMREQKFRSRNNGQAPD

Inadl_9, Q8NI35 = biological target: Inadl_9, Q8NI35
Sequence of Inadl_9, Q8NI35 (Q8NI35 1530-1615): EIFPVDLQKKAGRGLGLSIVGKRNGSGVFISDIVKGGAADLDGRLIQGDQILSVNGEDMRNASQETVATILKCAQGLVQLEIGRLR

DLG5_1, Q8TDM6 = biological target: DLG5_1, Q8TDM6
Sequence of DLG5_1, Q8TDM6 (Q8TDM6 617-713): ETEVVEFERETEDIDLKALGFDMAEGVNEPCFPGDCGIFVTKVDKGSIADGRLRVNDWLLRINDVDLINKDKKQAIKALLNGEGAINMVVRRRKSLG

GRIP2_3, Q9C0E4 = biological target: GRIP2_3, Q9C0E4
Sequence of GRIP2_3, Q9C0E4 (Q9C0E4 238-339): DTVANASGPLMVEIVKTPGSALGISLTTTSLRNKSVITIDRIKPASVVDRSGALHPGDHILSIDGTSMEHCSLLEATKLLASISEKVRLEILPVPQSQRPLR

HTRA1, Q92743 = biological target: HTRA1, Q92743
Sequence of HTRA1, Q92743 (Q92743 360-477): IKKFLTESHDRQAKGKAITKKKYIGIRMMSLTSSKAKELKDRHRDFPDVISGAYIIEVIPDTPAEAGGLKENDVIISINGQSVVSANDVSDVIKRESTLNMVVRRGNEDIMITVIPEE

LNX2_3, Q8N448 = biological target: T7, LNX2_3, Q8N448
TJP1_2, Q07157 = biological target: TJP1_2, Q07157
Sequence of TJP1_2, Q07157 (Q07157 181-274): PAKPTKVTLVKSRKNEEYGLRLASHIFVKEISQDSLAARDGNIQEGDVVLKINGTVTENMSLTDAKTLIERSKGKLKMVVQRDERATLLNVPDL

GRIP2_5, Q9C0E4 = biological target: GRIP2_5, Q9C0E4
Sequence of GRIP2_5, Q9C0E4 (Q9C0E4 544-642): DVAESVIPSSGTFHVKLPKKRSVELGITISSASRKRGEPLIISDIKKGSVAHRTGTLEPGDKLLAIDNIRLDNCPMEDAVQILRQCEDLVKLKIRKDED

LIN7C, Q9NUP9 = biological target: T8, LIN7C, Q9NUP9
NHERF3_4, Q5T2W1 = biological target: T9, NHERF3_4, Q5T2W1
DLG4_2, P78352 = biological target: DLG4_2, P78352
Sequence of DLG4_2, P78352 (P78352 155-259): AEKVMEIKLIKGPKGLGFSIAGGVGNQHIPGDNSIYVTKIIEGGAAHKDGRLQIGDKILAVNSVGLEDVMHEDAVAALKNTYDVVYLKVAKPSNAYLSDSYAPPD

SNTA1, Q13424 = biological target: T10, SNTA1, Q13424
FRMPD2_3, Q68DX3 = biological target: FRMPD2_3, Q68DX3
Sequence of FRMPD2_3, Q68DX3 (Q68DX3 1073-1166): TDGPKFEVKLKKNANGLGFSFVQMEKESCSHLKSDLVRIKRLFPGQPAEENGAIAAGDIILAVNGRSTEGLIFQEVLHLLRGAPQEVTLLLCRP

Binder | pKd (PDZRN3_1, Q9UPQ7) | pKd (GORASP1, Q9BQQ3) | pKd (LNX2_2, Q8N448) | pKd (ARHGEF12, Q9NZN5-2) | pKd (GRIP1_4, Q9Y3R0) | pKd (DLG1_3, Q12959) | pKd (GRIP2_7, Q9C0E4) | pKd (MAGI2_6, Q86UL8) | pKd (APBA2_2, Q99767) | pKd (TJP2_1, Q9UDY2) | pKd (MPP6, Q9NZW5) | pKd (Inadl_5, Q8NI35) | pKd (SNTB1, Q13884) | pKd (GIPC2, Q8TF65) | pKd (LNX1_1, Q8TBB1) | pKd (Inadl_9, Q8NI35) | pKd (DLG5_1, Q8TDM6) | pKd (GRIP2_3, Q9C0E4) | pKd (HTRA1, Q92743) | pKd (LNX2_3, Q8N448) | also measured
B1 | 4.4 | below the threshold | 4.15 | 3.7 | below the threshold | 4.63 | below the threshold | 4.05 | below the threshold | below the threshold | below the threshold | below the threshold | 4.57 | 3.75 | below the threshold | below the threshold | below the threshold | below the threshold | below the threshold | below the threshold | pKd (TJP1_2, Q07157): below the threshold; pKd (GRIP2_5, Q9C0E4): below the threshold; pKd (LIN7C, Q9NUP9): 3.94; pKd (NHERF3_4, Q5T2W1): below the threshold; pKd (DLG4_2, P78352): 4.71; pKd (SNTA1, Q13424): 4.52; pKd (FRMPD2_3, Q68DX3): below the threshold
B2 | 3.61 | below the threshold | below the threshold | 3.65 | below the threshold | 3.55 | below the threshold | below the threshold | below the threshold | below the threshold | below the threshold | below the threshold | 4.07 | 3.54 | below the threshold | below the threshold | below the threshold | below the threshold | 3.86 | below the threshold | pKd (TJP1_2, Q07157): below the threshold; pKd (GRIP2_5, Q9C0E4): below the threshold; pKd (LIN7C, Q9NUP9): 3.62; pKd (NHERF3_4, Q5T2W1): below the threshold; pKd (DLG4_2, P78352): below the threshold; pKd (SNTA1, Q13424): 3.81; pKd (FRMPD2_3, Q68DX3): below the threshold
B3 | 5.66 | 3.52 | below the threshold | 4.92 | below the threshold | 4.7 | below the threshold | 3.61 | below the threshold | 4.12 | 3.58 | below the threshold | 4.92 | below the threshold | 3.51 | below the threshold | below the threshold | below the threshold | below the threshold | below the threshold | pKd (TJP1_2, Q07157): below the threshold; pKd (GRIP2_5, Q9C0E4): below the threshold; pKd (LIN7C, Q9NUP9): 4.04; pKd (NHERF3_4, Q5T2W1): 3.89; pKd (DLG4_2, P78352): 4.66; pKd (SNTA1, Q13424): 4.75; pKd (FRMPD2_3, Q68DX3): below the threshold
B4 | below the threshold | below the threshold | below the threshold | below the threshold | below the threshold | below the threshold | below the threshold | 3.97 | below the threshold | below the threshold | below the threshold | below the threshold | below the threshold | below the threshold | below the threshold | below the threshold | below the threshold | below the threshold | below the threshold | below the threshold | pKd (TJP1_2, Q07157): below the threshold; pKd (GRIP2_5, Q9C0E4): below the threshold; pKd (LIN7C, Q9NUP9): 3.51; pKd (NHERF3_4, Q5T2W1): below the threshold; pKd (DLG4_2, P78352): 4.22; pKd (SNTA1, Q13424): below the threshold; pKd (FRMPD2_3, Q68DX3): below the threshold

— PMC9482650, “Quantitative fragmentomics allow affinity mapping of interactomes” (Nature Communications, 2022)
